# Laboratory results: patent US12099068B2, “Biomarkers for graft-versus-host disease” (Incyte Corporation, priority 2018, dated 2024)
# B1: TACSTD2 (protein, UniProt P09758 27-323, looked up)
# Tumor-associated calcium …: HTAAQDNCTCPTNKMTVCSPDGPGGRCQCRALGSGMAVDCSTLTSKCLLLKARMSAPKNARTLVRPSEHALVDNDGLYDPDCDPEGRFKARQCNQTSVCWCVNSVGVRRTDKGDLSLRCDELVRTHHILIDLRHRPTAGAFNHSDLDAELRRLFRERYRLHPKFVAAVHYEQPTIQIELRQNTSQKAAGDVDIGDAAYYFERDIKGESLFQGRGGLDLRVRGEPLQVERTLIYYLDEIPPKFSMKRLTAGLIAVIVVVVVALVAGMAVLVITNRRKSGKYKKVEIKELGELRKEPSL
# B2: IRF9 (protein, UniProt Q00978 1-393, looked up)
# Interferon regulatory factor 9: MASGRARCTRKLRNWVVEQVESGQFPGVCWDDTAKTMFRIPWKHAGKQDFREDQDAAFFKAWAIFKGKYKEGDTGGPAVWKTRLRCALNKSSEFKEVPERGRMDVAEPYKVYQLLPPGIVSGQPGTQKVPSKRQHSSVSSERKEEEDAMQNCTLSPSVLQDSLNNEEEGASGGAVHSDIGSSSSSSSPEPQEVTDTTEAPFQGDQRSLEFLLPPEPDYSLLLTFIYNGRVVGEAQVQSLDCRLVAEPSGSESSMEQVLFPKPGPLEPTQRLLSQLERGILVASNPRGLFVQRLCPIPISWNAPQAPPGPGPHLLPSNECVELFRTAYFCRDLVRYFQGLGPPPKFQVTLNFWEESHGSSHTPQNLITVKMEQAFARYLLEQTPEQQAAILSLV
# B3: GT (protein, UniProt P51161 2-128, looked up)
# Gastrotropin: AFTGKFEMESEKNYDEFMKLLGISSDVIEKARNFKIVTEVQQDGQDFTWSQHYSGGHTMTNKFTVGKESNIQTMGGKTFKATVQMEGGKLVVNFPNYHQTSEIVGDKLVEVSTIGGVTYERVSKRLA
# B4: GPNMB (protein, UniProt Q14956 23-572, looked up)
# Transmembrane glycoprotein NMB: KRFHDVLGNERPSAYMREHNQLNGWSSDENDWNEKLYPVWKRGDMRWKNSWKGGRVQAVLTSDSPALVGSNITFAVNLIFPRCQKEDANGNIVYEKNCRNEAGLSADPYVYNWTAWSEDSDGENGTGQSHHNVFPDGKPFPHHPGWRRWNFIYVFHTLGQYFQKLGRCSVRVSVNTANVTLGPQLMEVTVYRRHGRAYVPIAQVKDVYVVTDQIPVFVTMFQKNDRNSSDETFLKDLPIMFDVLIHDPSHFLNYSTINYKWSFGDNTGLFVSTNHTVNHTYVLNGTFSLNLTVKAAAPGPCPPPPPPPRPSKPTPSLATTLKSYDSNTPGPAGDNPLELSRIPDENCQINRYGHFQATITIVEGILEVNIIQMTDVLMPVPWPESSLIDFVVTCQGSIPTEVCTIISDPTCEITQNTVCSPVDVDEMCLLTVRRTFNGSGTYCVNLTLGDDTSLALTSTLISVPDRDPASPLRMANSALISVGCLAIFVTVISLLVYKKHKEYNPIENSPGNVVRSKGLSVFLNRAKAVFFPGNQEKDPLLKNQEFKGVS
# B5: NINJ1 (protein, UniProt Q92982 1-152, looked up)
# Ninjurin-1: MDSGTEEYELNGGLPPGTPGSPDASPARWGWRHGPINVNHYASKKSAAESMLDIALLMANASQLKAVVEQGPSFAFYVPLVVLISISLVLQIGVGVLLIFLVKYDLNNPAKHAKLDFLNNLATGLVFIIVVVNIFITAFGVQKPLMDMAPQQ
# B6: STX8 (protein, UniProt Q9UNK0 1-236, looked up)
# Syntaxin-8: MAPDPWFSTYDSTCQIAQEIAEKIQQRNQYERKGEKAPKLTVTIRALLQNLKEKIALLKDLLLRAVSTHQITQLEGDRRQNLLDDLVTRERLLLASFKNEGAEPDLIRSSLMSEEAKRGAPNPWLFEEPEETRGLGFDEIRQQQQKIIQEQDAGLDALSSIISRQKQMGQEIGNELDEQNEIIDDLANLVENTDEKLRNETRRVNMVDRKSASCGMIMVILLLLVAIVVVAVWPTN
# B7: CD200R1 (protein, UniProt Q8TD46 25-348, looked up)
# Cell surface glycoprotein …: EGAAQPNNSLMLQTSKENHALASSSLCMDEKQITQNYSKVLAEVNTSWPVKMATNAVLCCPPIALRNLIIITWEIILRGQPSCTKAYKKETNETKETNCTDERITWVSRPDQNSDLQIRTVAITHDGYYRCIMVTPDGNFHRGYHLQVLVTPEVTLFQNRNRTAVCKAVAGKPAAHISWIPEGDCATKQEYWSNGTVTVKSTCHWEVHNVSTVTCHVSHLTGNKSLYIELLPVPGAKKSAKLYIPYIILTIIILTIVGFIWLLKVNGCRKYKLNKTESTPVVEEDEMQPYASYTEKNNPLYDTTNKVKASEALQSEVDTDLHTL
# B8: FCGR2A (protein, UniProt P12318 34-317, looked up)
# Low affinity immunoglobulin …: QAAAPPKAVLKLEPPWINVLQEDSVTLTCQGARSPESDSIQWFHNGNLIPTHTQPSYRFKANNNDSGEYTCQTGQTSLSDPVHLTVLSEWLVLQTPHLEFQEGETIMLRCHSWKDKPLVKVTFFQNGKSQKFSHLDPTFSIPQANHSHSGDYHCTGNIGYTLFSSKPVTITVQVPSMGSSSPMGIIVAVVIATAVAAIVAAVVALIYCRKKRISANSTDPVKAAQFEPPGRQMIAIRKRQLEETNNDYETADGGYMTLNPRAPTDDDKNIYLTLPPNDHVNSNN
# B9: ITGB5 (protein, UniProt P18084 24-799, looked up)
# Integrin beta-5: GLNICTSGSATSCEECLLIHPKCAWCSKEDFGSPRSITSRCDLRANLVKNGCGGEIESPASSFHVLRSLPLSSKGSGSAGWDVIQMTPQEIAVNLRPGDKTTFQLQVRQVEDYPVDLYYLMDLSLSMKDDLDNIRSLGTKLAEEMRKLTSNFRLGFGSFVDKDISPFSYTAPRYQTNPCIGYKLFPNCVPSFGFRHLLPLTDRVDSFNEEVRKQRVSRNRDAPEGGFDAVLQAAVCKEKIGWRKDALHLLVFTTDDVPHIALDGKLGGLVQPHDGQCHLNEANEYTASNQMDYPSLALLGEKLAENNINLIFAVTKNHYMLYKNFTALIPGTTVEILDGDSKNIIQLIINAYNSIRSKVELSVWDQPEDLNLFFTATCQDGVSYPGQRKCEGLKIGDTASFEVSLEARSCPSRHTEHVFALRPVGFRDSLEVGVTYNCTCGCSVGLEPNSARCNGSGTYVCGLCECSPGYLGTRCECQDGENQSVYQNLCREAEGKPLCSGRGDCSCNQCSCFESEFGKIYGPFCECDNFSCARNKGVLCSGHGECHCGECKCHAGYIGDNCNCSTDISTCRGRDGQICSERGHCLCGQCQCTEPGAFGEMCEKCPTCPDACSTKRDCVECLLLHSGKPDNQTCHSLCRDEVITWVDTIVKDDQEAVLCFYKTAKDCVMMFTYVELPSGKSNLTVLREPECGNTPNAMTILLAVVGSILLVGLALLAIWKLLVTIHDRREFAKFQSERSRARYEMASNPLYRKPISTHTVDFTFNKFNKSYNGTVD
# B10: REN (protein, UniProt P00797 67-406, looked up)
# Renin: LTLGNTTSSVILTNYMDTQYYGEIGIGTPPQTFKVVFDTGSSNVWVPSSKCSRLYTACVYHKLFDASDSSSYKHNGTELTLRYSTGTVSGFLSQDIITVGGITVTQMFGEVTEMPALPFMLAEFDGVVGMGFIEQAIGRVTPIFDNIISQGVLKEDVFSFYYNRDSENSQSLGGQIVLGGSDPQHYEGNFHYINLIKTGVWQIQMKGVSVGSSTLLCEDGCLALVDTGASYISGSTSSIEKLMEALGAKKRLFDYVVKCNEGPTLPDISFHLGGKEYTLTSADYVFQESYSSKKLCTLAIHAMDIPPPTGPTWALGATFIRKFYTEFDRRNNRIGFALAR
# B11: LY9 (protein, UniProt Q9HBG7 48-655, looked up)
# T-lymphocyte surface antigen …: KDSAPTVVSGILGGSVTLPLNISVDTEIENVIWIGPKNALAFARPKENVTIMVKSYLGRLDITKWSYSLCISNLTLNDAGSYKAQINQRNFEVTTEEEFTLFVYEQLQEPQVTMKSVKVSENFSCNITLMCSVKGAEKSVLYSWTPREPHASESNGGSILTVSRTPCDPDLPYICTAQNPVSQRSSLPVHVGQFCTDPGASRGGTTGETVVGVLGEPVTLPLALPACRDTEKVVWLFNTSIISKEREEAATADPLIKSRDPYKNRVWVSSQDCSLKISQLKIEDAGPYHAYVCSEASSVTSMTHVTLLIYRRLRKPKITWSLRHSEDGICRISLTCSVEDGGNTVMYTWTPLQKEAVVSQGESHLNVSWRSSENHPNLTCTASNPVSRSSHQFLSENICSGPERNTKLWIGLFLMVCLLCVGIFSWCIWKRKGRCSVPAFCSSQAEAPADTPEPTAGHTLYSVLSQGYEKLDTPLRPARQQPTPTSDSSSDSNLTTEEDEDRPEVHKPISGRYEVFDQVTQEGAGHDPAPEGQADYDPVTPYVTEVESVVGENTMYAQVFNLQGKTPVSQKEESSATIYCSIRKPQVVPPPQQNDLEIPESPTYENFT
# B12: APLP1 (protein, UniProt P51693 39-650, looked up)
# Amyloid beta precursor like …: SLAGGSPGAAEAPGSAQVAGLCGRLTLHRDLRTGRWEPDPQRSRRCLRDPQRVLEYCRQMYPELQIARVEQATQAIPMERWCGGSRSGSCAHPHHQVVPFRCLPGEFVSEALLVPEGCRFLHQERMDQCESSTRRHQEAQEACSSQGLILHGSGMLLPCGSDRFRGVEYVCCPPPGTPDPSGTAVGDPSTRSWPPGSRVEGAEDEEEEESFPQPVDDYFVEPPQAEEEEETVPPPSSHTLAVVGKVTPTPRPTDGVDIYFGMPGEISEHEGFLRAKMDLEERRMRQINEVMREWAMADNQSKNLPKADRQALNEHFQSILQTLEEQVSGERQRLVETHATRVIALINDQRRAALEGFLAALQADPPQAERVLLALRRYLRAEQKEQRHTLRHYQHVAAVDPEKAQQMRFQVHTHLQVIEERVNQSLGLLDQNPHLAQELRPQIQELLHSEHLGPSELEAPAPGGSSEDKGGLQPPDSKDDTPMTLPKGSTEQDAASPEKEKMNPLEQYERKVNASVPRGFPFHSSEIQRDELAPAGTGVSREAVSGLLIMGAGGGSLIVLSMLLLRRKKPYGAISHGVVEVDPMLTLEEQQLRELQRHGYENPTYRFLEERP
# B13: CD84 (protein, UniProt Q9UIB8 22-345, looked up)
# SLAM family member 5: KDSEIFTVNGILGESVTFPVNIQEPRQVKIIAWTSKTSVAYVTPGDSETAPVVTVTHRNYYERIHALGPNYNLVISDLRMEDAGDYKADINTQADPYTTTKRYNLQIYRRLGKPKITQSLMASVNSTCNVTLTCSVEKEEKNVTYNWSPLGEEGNVLQIFQTPEDQELTYTCTAQNPVSNNSDSISARQLCADIAMGFRTHHTGLLSVLAMFFLLVLILSSVFLFRLFKRRQGRIFPEGSCLNTFTKNPYAASKKTIYTYIMASRNTQPAESRIYDEILQSKVLPSKEEPVNTVYSEVQFADKMGKASTQDSKPPGTSSYEIVI
# System: plasma proteins
# Test: Plasma proteins modulated between baseline and day 28 in responders (CR, VGPR, PR; n = 19), Example 6 (Table 13)
# Format: in vivo, human
# Details: plasma protein (OLINK NPX); responders (CR, VGPR, PR; n = 19); itacitinib 200 mg or 300 mg QD with corticosteroids; day 28 vs baseline
# In short: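 Longitudinal comparison, day 28 versus baseline, with steroid-naive (N=10) and steroid-refractory (N=18) patients combined. Proteins measured by OLINK proximity extension, log2 normalized protein expression. Differences tested by t tests, ANOVA, Pearson correlation, P<0.05 significant.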
Molecule,"Fold Change, Increased Expression from Baseline to Day 28","Fold Change, Decreased Expression from Baseline to Day 28"
B1,1.1931,–
B2,–,−1.4384
B3,1.8699,–
B4,1.2117,–
B5,1.2723,–
B6,–,−1.4796
B7,–,−1.4752
B8,–,−1.5278
B9,1.229,–
B10,1.4074,–
B11,–,−1.4447
B12,1.4933,–
B13,–,−1.7208
